Data on 167 variants can be found in the Human Domainome abundance scans (Beltran et al. 2025).

First the molecules themselves.
B1: Storkhead-box protein 2, residues 64 to 141; numbered along this chain, Q9P2F5 (parent)
chain: SPISQSQFIPLGEILCLAISAMNSARKPVTQEALMEHLTTCFPGVPTPSQEILRHTLNTLVRERKIYPTPDGYFIVTP

± gives the uncertainty stated by the source.

The series covers variants of B1. As to the kind of experiment: abundance fitness (aPCA) (normalised: wild type 0, dead -1); higher = more abundant; growth selection in yeast, the domain comes from the species named. Conditions: Homo sapiens.
Take V45P: the abundance fitness is -0.168 ± 0.064.
Take V45T: the abundance fitness was -0.031 ± 0.061.
Next, V45I: 0.026 ± 0.08; F8Q: -0.196 ± 0.075; F8A: -0.055 ± 0.07.
Next, F8Y: -0.326 ± 0.14; F8R: -0.059 ± 0.03; F8W: -0.016 ± 0.058.
The result for E51K reads 0.003 ± 0.098; that for E51Y, -0.161 ± 0.1; that for E51M, -0.203 ± 0.099.
E51G: the abundance fitness was -0.1 ± 0.044.
The result for P43I reads -0.092 ± 0.11; that for P68I, -0.046 ± 0.12; that for P68Y, -0.141 ± 0.086.
Next, P68M: -0.038 ± 0.056; G12A: -0.3 ± 0.29; C16M: -0.04 ± 0.088.
The result for C16Y reads -0.021 ± 0.079; that for C16Q, 0.072 ± 0.19.
L53Y: the abundance fitness was -0.108 ± 0.079.
Next, L53M: 0.019 ± 0.047.
In the case of L53T, the abundance fitness came out at 0.026 ± 0.066.
On to H55R, for which the abundance fitness is -0.055 ± 0.045.
Turning to H55N, the abundance fitness came out at 0.109 ± 0.083.
In the case of S49K, the abundance fitness is -0.139 ± 0.055.
Next, S49G: -0.068 ± 0.032.
The result for S49T reads -0.16 ± 0.055; that for S49P, -0.27 ± 0.045.
With S49F, the abundance fitness was -0.887 ± 0.1.
Consider S49A, for which the abundance fitness was -0.109 ± 0.035.
Regarding S4L, the abundance fitness was -0.026 ± 0.041.
The result for S4G reads -0.17 ± 0.032; that for S4T, -0.006 ± 0.046.
For S4V, the abundance fitness is -0.056 ± 0.042.
Next, P28Q: 0.063 ± 0.062; P28L: -0.2 ± 0.043.
Next, P28G: -0.133 ± 0.037; P2Y: 0.107 ± 0.1.
Next, P2L: 0.046 ± 0.047.
On to P2A, for which the abundance fitness was -0.084 ± 0.055.
Next, P2C: -0.15 ± 0.14; T69H: -0.071 ± 0.075; T69D: -0.04 ± 0.11.
T69Y: the abundance fitness is -0.358 ± 0.13.
Next, T69R: -0.015 ± 0.028; T69G: -0.003 ± 0.032; A21C: -0.137 ± 0.07.
Next, I75M: 0.1 ± 0.058; I75W: -0.057 ± 0.049; M35W: -0.124 ± 0.067.
The result for M35V reads -0.092 ± 0.052; that for M35G, -0.049 ± 0.049.
M35F: the abundance fitness turned out to be 0.04 ± 0.071.
The result for I19E reads -1 ± 0.15.
The result for I19Y reads -1.26 ± 0.33; that for I19T, -0.224 ± 0.06; that for E36M, -0.059 ± 0.12.
Turning to E36P, the abundance fitness is -0.424 ± 0.061.
The result for E36T reads -0.006 ± 0.067; that for R62W, -0.081 ± 0.049.
For the variant R62H, the abundance fitness was -0.051 ± 0.14.
The result for R62D reads -0.05 ± 0.11; that for A25Q, -0.021 ± 0.073; that for A25S, -0.055 ± 0.038.
The result for A25R reads -0.066 ± 0.045; that for A25F, -0.08 ± 0.058; that for A25L, -0.026 ± 0.038.
Next, L38K: -0.608 ± 0.4.
With L38T, the abundance fitness is -0.258 ± 0.059.
In the case of L38H, the abundance fitness was -0.388 ± 0.21.
The result for L38G reads -0.787 ± 0.065; that for T39I, 0.04 ± 0.11; that for T39H, -0.044 ± 0.13.
Next, P46T: -0.03 ± 0.056; P46M: -0.107 ± 0.058.
The result for L57Q reads -0.924 ± 0.26; that for L57D, -0.793 ± 0.24; that for S1A, -0.395 ± 0.083.
Turning to V29N, the abundance fitness is -1.07 ± 0.44.
For V29Q, the abundance fitness is -0.386 ± 0.099.
Next, Q7I: -0.068 ± 0.099; Q7S: 0.036 ± 0.049.
The result for Q7K reads -0.051 ± 0.086; that for I66Q, -1.01 ± 0.18; that for Y73M, -0.108 ± 0.072.
Next, I52R: -0.086 ± 0.045.
Regarding I52S, the abundance fitness is -0.134 ± 0.054.
Next, I52T: 0.025 ± 0.069.
For the variant A33W, the abundance fitness was -0.279 ± 0.05.
Next, A33K: -0.028 ± 0.074; A33E: -0.067 ± 0.047.
Next, A33L: -0.061 ± 0.032; A33S: -0.001 ± 0.041; N58G: 0 ± 0.031.
The result for N58Q reads -0.03 ± 0.037; that for F74D, -0.038 ± 0.11.
Regarding F74T, the abundance fitness is -0.031 ± 0.062.
With F74N, the abundance fitness was -0.361 ± 0.27.
Next, F74G: 0.052 ± 0.035.
The result for T47I reads 0.11 ± 0.064.
The result for T47Y reads -0.132 ± 0.085; that for T47S, -0.092 ± 0.041; that for K27M, -0.1 ± 0.058.
As to K27G, the abundance fitness was -0.132 ± 0.03.
The result for F42E reads 0.108 ± 0.13; that for F42Q, -0.661 ± 0.47; that for F42V, -0.045 ± 0.11.
Next, S6N: -0.033 ± 0.078.
The result for S6P reads -0.07 ± 0.055; that for K65F, -0.084 ± 0.093; that for K65Y, -0.154 ± 0.14.
Turning to K65L, the abundance fitness is -0.06 ± 0.039.
Q50M: the abundance fitness worked out at 0.036 ± 0.083.
Consider Q50F, for which the abundance fitness came to 0.013 ± 0.16.
Next, Q50G: 0.053 ± 0.044.
For Q50N, the abundance fitness is -0.08 ± 0.16.
Consider P78R, for which the abundance fitness came out at 0.049 ± 0.082.
The result for P78F reads -0.37 ± 0.2; that for P78M, -0.289 ± 0.12; that for P78T, -0.191 ± 0.085.
For the variant M22N, the abundance fitness was -0.334 ± 0.12.
The result for I3P reads -0.106 ± 0.047; that for I3C, -0.16 ± 0.057; that for I3M, -0.047 ± 0.058.
Next, L17H: 0.034 ± 0.11; I9Q: 0.101 ± 0.14.
Next, I9D: -0.035 ± 0.1; I9H: -0.243 ± 0.48; I9R: 0.03 ± 0.058.
In the case of I9N, the abundance fitness stood at 0.131 ± 0.1.
For Q31A, the abundance fitness was -0.045 ± 0.045.
The result for Q31S reads -0.019 ± 0.036; that for Q5Y, -0.055 ± 0.083.
Next, Q5E: -0.015 ± 0.088; Q5C: -0.025 ± 0.063.
Next, Q5I: -0.052 ± 0.078; T56D: -0.069 ± 0.1.
Regarding T56S, the abundance fitness was -0.005 ± 0.045.
The result for T56W reads -0.022 ± 0.058.
Next, P10F: -0.04 ± 0.093; P10I: 0.302 ± 0.4.
Next, Y67C: 0.039 ± 0.053.
As to Y67P, the abundance fitness is -0.566 ± 0.065.
The result for P70Y reads -0.061 ± 0.079; that for P70V, 0.011 ± 0.047.
Consider E13G, for which the abundance fitness is -0.009 ± 0.042.
Next, E13R: 0.078 ± 0.046; E13H: -0.061 ± 0.16; E13V: -0.241 ± 0.05.
The result for R64P reads -1.09 ± 0.14.
On to R64H, for which the abundance fitness is 0.039 ± 0.12.
Consider R64I, for which the abundance fitness is -0.619 ± 0.14.
In the case of R64L, the abundance fitness is -0.124 ± 0.044.
The result for H37D reads -0.259 ± 0.074; that for H37P, -0.802 ± 0.12.
The result for H37T reads -0.322 ± 0.11; that for V76G, -0.011 ± 0.036; that for V76D, -0.102 ± 0.089.
The result for V76S reads 0.092 ± 0.044; that for V76Q, -0.007 ± 0.078; that for I14A, -0.003 ± 0.057.
Regarding I14Y, the abundance fitness was -0.108 ± 0.14.
Next, I14E: -0.089 ± 0.11; L11S: -0.396 ± 0.056.
The result for L11N reads -0.466 ± 0.21; that for L11Q, -0.32 ± 0.095.
